Reference: US20250051474A1, “ANTI-CD97 ANTIBODIES AND ANTIBODY-DRUG CONJUGATES” (New York University, priority 2023, published 2025)

Molecular target: T1, CD97 (reference without GAIN mutation) expressed on ExpiCHO cells in the mutational study (human, UniProt P48960 21-835)
T1 construct: the whole entry for isoform 1 is named here; also called CD97 GAIN domain
T1 sequence: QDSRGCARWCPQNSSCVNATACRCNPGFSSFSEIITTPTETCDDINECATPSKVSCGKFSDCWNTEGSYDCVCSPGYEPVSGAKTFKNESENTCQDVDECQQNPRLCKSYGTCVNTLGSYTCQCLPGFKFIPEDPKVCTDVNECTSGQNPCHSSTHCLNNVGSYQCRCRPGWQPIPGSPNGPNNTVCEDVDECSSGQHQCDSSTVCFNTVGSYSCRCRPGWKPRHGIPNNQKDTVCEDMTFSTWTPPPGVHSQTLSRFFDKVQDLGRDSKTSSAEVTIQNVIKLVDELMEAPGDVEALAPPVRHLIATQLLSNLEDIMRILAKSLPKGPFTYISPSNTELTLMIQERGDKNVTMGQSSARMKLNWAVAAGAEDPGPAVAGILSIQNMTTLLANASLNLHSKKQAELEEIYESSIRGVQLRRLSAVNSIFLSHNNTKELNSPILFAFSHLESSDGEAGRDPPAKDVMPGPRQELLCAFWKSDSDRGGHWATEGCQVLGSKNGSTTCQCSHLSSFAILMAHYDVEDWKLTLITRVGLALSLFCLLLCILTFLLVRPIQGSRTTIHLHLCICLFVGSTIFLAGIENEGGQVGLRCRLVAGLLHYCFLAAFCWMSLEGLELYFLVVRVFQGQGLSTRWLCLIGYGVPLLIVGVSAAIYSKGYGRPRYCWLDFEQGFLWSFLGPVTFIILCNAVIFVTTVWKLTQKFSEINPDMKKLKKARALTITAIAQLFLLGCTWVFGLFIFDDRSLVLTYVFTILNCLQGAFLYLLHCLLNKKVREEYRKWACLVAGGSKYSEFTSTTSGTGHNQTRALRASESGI
Assay: cell-based binding assay: CD97 transiently expressed on ExpiCHO cells, A8 Fab titrated, flow cytometry MFI, 1:1 fit; the same WT curve and value stand in the upper and the lower panel
Method: KD values were determined from the curve fitting of a 1:1 binding model.

B1: Antibody clone A8, Fab format (Fab, V domains shown)
VH: EVQLVESGGGLVQPGGSLRLSCAASGFTISSYSIHWVRQAPGKGLEWVASISPYYGSTSYADSVKGRFTISADTSKNTAYLQMNSLRAEDTAVYYCARSWYYYEQNPYWYQKEEQALDYWGQGTLVTVSS
VL: DIQMTQSPSSLSASVGDRVTITCRASQSVSSAVAWYQQKPGKAPKLLIYSASSLYSGVPSRFSGSRSGTDFTLTISSLQPEDFATYYCQQSVYSPVTFGQGTKVEIKR
notes: Fab; also called wild type A8
Kd: 45 nM
